Data from paper PMC7054360, “pH-responsive high stability polymeric nanoparticles for targeted delivery of anticancer therapeutics” (Communications Biology, 2020).
Where no end group is shown, it is not given here. The star is where a group is joined. NBD = O=[N+]([O-])c1ccc(*)c2nonc12

Target: T1, bovine serum albumin (bovine, UniProt P02769 25-607)
T1 construct: bovine serum albumin; Free BSA in PBS, not the crosslinked BSA shell of the nanoparticles; also called BSA; source: bought: Sigma
Assay: fluorescence polarisation; fluorescence anisotropy of NBD; constant 0.4 uM ATRAM-NBD, increasing BSA (0.25-15 uM); PBS; room temperature; excitation 460 nm, emission 535 nm
Conditions: both partners purified

T1 sequence (P02769 25-607): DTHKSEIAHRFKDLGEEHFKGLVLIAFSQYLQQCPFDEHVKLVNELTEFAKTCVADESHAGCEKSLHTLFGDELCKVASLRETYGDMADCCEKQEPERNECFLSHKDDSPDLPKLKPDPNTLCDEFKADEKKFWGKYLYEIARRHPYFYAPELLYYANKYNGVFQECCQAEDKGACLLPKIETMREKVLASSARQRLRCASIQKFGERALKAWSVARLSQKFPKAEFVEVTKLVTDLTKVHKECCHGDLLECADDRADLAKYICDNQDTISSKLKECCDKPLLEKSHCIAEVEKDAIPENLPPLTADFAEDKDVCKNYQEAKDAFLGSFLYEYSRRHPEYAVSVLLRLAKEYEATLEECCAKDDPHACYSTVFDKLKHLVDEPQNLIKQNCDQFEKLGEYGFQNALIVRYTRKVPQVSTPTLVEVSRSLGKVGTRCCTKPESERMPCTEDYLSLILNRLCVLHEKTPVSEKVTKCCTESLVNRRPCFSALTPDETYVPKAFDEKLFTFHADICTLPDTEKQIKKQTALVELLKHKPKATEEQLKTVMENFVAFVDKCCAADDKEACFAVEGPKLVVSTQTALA

- Kd: 295 nM
B1: NBD-labeled ATRAM (acidity-triggered rational membrane peptide), C-terminal cysteine variant (peptide)
peptide: GLAGLAGLLGLEGLLGLPLGLLEGLWLGLELEC(NBD)N
notes: designed pH-responsive ATRAM peptide, variant with a cysteine (underlined in print) next to the C-terminal residue; also called ATRAM-NBD; source: C-terminal cysteine ATRAM variant labelled with NBD; purified by PD-10 gel filtration and reverse-phase HPLC (parent ATRAM peptide: synthesized by Selleck Chemicals, Fmoc)
